{"source": "paper PMC6021111", "about": "“Murine leukemia virus p12 tethers the capsid-containing pre-integration complex to chromatin by binding directly to host nucleosomes in mitosis” (PLoS Pathogens, 2018)", "molecules": {"B1": {"name": "GST-p12_WT: N-terminally GST-tagged Mo-MLV p12 (protein)", "chain": "PALTPSLGAKPKPQVLSDSGGPLIDLLTEDPPPYRDPRPPPSDRDGNGGEATPAGEAPDPSPMASRLRGRREPPVADSTTSQAF", "modifications": "left off: GST, N-terminal, kept", "notes": "N-terminally GST-tagged Mo-MLV p12"}}, "key": {"[1]": {"system": "GST-p12_WT", "assay": "SILAC-MS of proteins enriched with GST-p12_WT relative to GST", "type": "binding, Mo-MLV", "details": "log2(H/L) >2.58 SDs from mean", "text": "To test whether GST-p12 was acting like the p12 region of Gag, we used a global proteomic approach based on stable isotope labelling by amino acids in cell culture (SILAC)-mass spectrometry (MS) to look for host proteins that interact with GST-p12 [35, 36]. A schematic diagram of the workflow is illustrated in Fig 4A. Briefly, GST, GST-p12_mut14 and GST-p12_WT were transiently-expressed in 293T cells cultured in light (R0/K0), medium (R6/K4) and heavy (R10/K8) SILAC media, respectively. Next, lysates of nocodazole treated transfected cells were prepared, normalised and used for parallel pull-down assays with glutathione-sepharose beads. The eluates from the beads were then pooled in a 1:1:1 ratio and subjected to LC-MS/MS analysis. The experiment was performed using biological replicates to test reproducibility of the mass-spec hits. The pull-down assays for this experiment were performed using mitotic cell lysates to facilitate identification of any potential chromatin interactions that were previously missed.\nAfter removal of obvious contaminants (e.g. keratin) and non-quantified hits, 948 and 879 proteins were identified in replicates 1 and 2 (R1 and R2) of the experiment respectively (the false discovery rate (FDR) was set at 5%). To select proteins enriched in the heavy-labelled (H) GST-p12_WT sample relative to the light-labelled (L) GST sample, we compared the log2(H/L) silac ratios of the mass-spectrometry hits. When plotted as a frequency distribution, the log2(H/L) ratios of each replicate fitted well to a normal distribution curve (R^2 ≥ 0.98), allowing the mean and standard deviation to be accurately estimated (Fig 4B). In this experiment, contaminants/non-specifically bound cellular proteins were assumed to cluster around the mean of the distribution. […] Twenty one such proteins were identified in R1 and 22 identified in R2 (Fig 4B Venn diagram). […] These proteins were then ranked based on normalised abundance in the group. In mass-spectrometry analysis, larger proteins are in general assigned higher scores. Therefore, to control for protein size, we divided the number of peptide spectral matches identified for each protein with its length and then normalised the values across the group (Fig 4C and 4D). When ranked this way, the clathrin heavy chain (CLTC), clathrin interactor 1 (CLINT1) and NEDD4-like E3 ubiquitin ligase (WWP2) were identified as the top three hits. […] The function of clathrin in MLV infection is unclear. […] Thus, clathrin binding may be relevant to the early stages of MLV replication and should be investigated further.\n(§1) For SILAC-MS experiments, 293T cells were grown is media containing light (R0K0, ^12C-Arginine and ^12C-Lysine), medium (R6K4, ^13C-Arginine and Lysine-4,4,5,5-d4) or heavy (R10K8, ^13C+^15N-Arginine and ^13C+^15N-Lysine) versions of L-Arginine and L-Lysine amino acids (Pierce) for a minimum of 6 doublings before transient expression of GST-p12 proteins. After performing the glutathione-sepharose pull-down assays equivalent volumes of the beads eluates were pooled and submitted to the Bristol University Proteomics Facility for RP nano-LC-MS/MS analysis. This analysis was performed on an LTQ-Orbitrap Velos mass spectrometer in line with a Dionex Ultimate 3000 nanoHPLC system as described in [53].\nSupplementary file ppat.1007117.s005.xlsx: S1 Table Results from the first SILAC-MS analysis. GST, Mo-MLV GST-p12_mut14 or GST-p12_WT were transiently-expressed in 293T cells cultured in light (R0/K0), medium (R6/K4) and heavy (R10/K8) SILAC media, respectively. Mitotic cell lysates were subsequently used for glutathione-sepharose bead pull-down assays. Bead eluates were pooled in a 1:1:1 ratio and then analysed by LC-MS/MS. […] (XLSX) Click here for additional data file."}, "[2]": {"system": "cellular proteins of mitotic 293T cells", "assay": "SILAC-MS of GST-p12_WT relative to GST-p12_mut14", "type": "binding", "details": "log2(H/M) >2.58 SDs from mean in both replicates", "method": "as §1\nSupplementary file ppat.1007117.s002.tif: S2 Fig SILAC results showing no significant difference in protein complexes of Mo-MLV GST-p12_mut14 compared to GST-p12_WT. (Links to Fig 4). GST, Mo-MLV GST-p12_mut14 or GST-p12_WT were transiently-expressed in 293T cells cultured in light (L), medium (M) or heavy (H) SILAC media, respectively. GST-protein complexes were precipitated from mitotic cell lysates and analysed by LC-MS/MS. (A) To identify proteins enriched in the GST-p12_WT (H) sample relative to the GST-p12_mut14 (M) sample, log2(H/M) silac ratios of each set of MS hits (FDR <5%) from replicates (R1 and R2) were plotted as a frequency distribution. […]"}, "[3]": {"system": "GST-p12 phosphorylation in 293T cells", "assay": "nano LC-MS/MS phosphopeptide identification of GST-p12", "type": "cell-based", "text": "We next used nanoscale liquid chromatography coupled to tandem mass spectrometry (nano LC–MS/MS) to identify phosphopeptides of GST-p12_WT precipitated from 293T cells. The phosphorylation sites in the high confidence tryptic-peptides (<1% false discovery rate, FDR) were assigned using the probability-based phosphoRS algorithm (Table 1). A peptide was counted as being phosphorylated at a specific residue if its phosphoRS site probability was >50%. For each tryptic peptide, the phosphorylation level at a particular site was estimated by dividing the phosphorylated peptide count by the total peptide count. This analysis, carried out with two biological replicates, confirmed S61 to be the main site of phosphorylation on GST-p12_WT, with ~45% of S61-containing peptides phosphorylated at this residue (Table 1). We also identified T52, S65, S78, T80 and S81 as additional sites of low-level phosphorylation on p12 (Table 1). […] The absence of a detectable association between GST-p12 and mitotic chromatin is therefore unlikely to result from a lack of phosphorylation of recombinant p12.\nTo identify phosphopeptides of GST-p12, bead eluates were separated by SDS-PAGE and stained using SimplyBlue safe stain (Thermo Fisher Scientific). The band corresponding to GST-p12 was then excised and submitted for nano-LC-MS/MS analysis as described in [54], but without phosphopeptides enrichment. The probability-based phosphoRS algorithm was used for assigning phosphorylation sites in the detected peptides."}}, "data": [{"molecule": "B1", "values": [{"measurement": "number of proteins significantly enriched vs GST in both replicates", "setting": "[1]; R1 and R2", "value": "seven"}, {"measurement": "number of proteins significantly enriched vs GST", "setting": "[1]; replicate 1", "value": "Twenty one"}, {"measurement": "number of proteins significantly enriched vs GST", "setting": "[1]; replicate 2", "value": 22, "unit": "proteins"}, {"measurement": "proteins significantly enriched vs GST-p12_mut14", "setting": "[2]", "value": "no proteins that passed the criteria for significant enrichment"}, {"measurement": "Fraction of phosphorylated peptides", "setting": "[3]; S61, peptide aa 36–66, 1 missed cleavage, replicate R1", "value": 0.47}, {"measurement": "Fraction of phosphorylated peptides", "setting": "[3]; S61, peptide aa 36–66, 1 missed cleavage, replicate R2", "value": 0.52}, {"measurement": "Fraction of phosphorylated peptides", "setting": "[3]; S61, peptide aa 45–66, 0 missed cleavages, replicate R1", "value": 0.36}, {"measurement": "Fraction of phosphorylated peptides", "setting": "[3]; S61, peptide aa 45–66, 0 missed cleavages, replicate R2", "value": 0.49}, {"measurement": "Fraction of phosphorylated peptides", "setting": "[3]; S65, peptide aa 45–66, 0 missed cleavages, replicate R1", "value": 0.01}, {"measurement": "Fraction of phosphorylated peptides", "setting": "[3]; S65, peptide aa 45–66, 0 missed cleavages, replicate R2", "value": 0.07}, {"measurement": "Fraction of phosphorylated peptides", "setting": "[3]; S78, peptide aa 72–84+ linker, 0 missed cleavages, replicate R1", "value": 0.03}, {"measurement": "Fraction of phosphorylated peptides", "setting": "[3]; S78, peptide aa 72–84+ linker, 0 missed cleavages, replicate R2", "value": 0.03}, {"measurement": "Fraction of phosphorylated peptides", "setting": "[3]; S81, peptide aa 71–84+ linker, 1 missed cleavage, replicate R1", "value": 0.10}, {"measurement": "Fraction of phosphorylated peptides", "setting": "[3]; S81, peptide aa 72–84+ linker, 0 missed cleavages, replicate R1", "value": 0.03}, {"measurement": "Fraction of phosphorylated peptides", "setting": "[3]; S81, peptide aa 72–84+ linker, 0 missed cleavages, replicate R2", "value": 0.01}, {"measurement": "Fraction of phosphorylated peptides", "setting": "[3]; T52, peptide aa 45–66, 0 missed cleavages, replicate R1", "value": 0.13}, {"measurement": "Fraction of phosphorylated peptides", "setting": "[3]; T52, peptide aa 45–66, 0 missed cleavages, replicate R2", "value": 0.04}, {"measurement": "Fraction of phosphorylated peptides", "setting": "[3]; T80, peptide aa 71–84+ linker, 1 missed cleavage, replicate R1", "value": 0.04}, {"measurement": "Fraction of phosphorylated peptides", "setting": "[3]; T80, peptide aa 72–84+ linker, 0 missed cleavages, replicate R1", "value": 0.01}]}]}
